Key:
[1] = target: the molecule itself; test: cryo-EM structure; helical reconstruction of amyloid fibrils formed at pH 7.5, 300 mM NaCl; single protofilament, cross-beta stacking of subunits; 2.5 Å
hnRNPDL-2 (soluble) = target: T1, hnRNPDL-2 (soluble) (human, UniProt O14979-2 1-301); test: EMSA; apparent Kd, Hill fit; 50 nM probe; EMSA: 10 ul, 50 nM probe, 24 h at RT, 8% polyacrylamide gel, buffer not stated; fibril binding: 24 h at RT, spin 16,000 x g at 4 C, pellet wash 50 mM HEPES pH 7.5, 150 mM NaCl; conditions: protein: recombinant; tags: N-terminal His-SUMO (expression construct); label: fluorescein, printed at 5' side (F-); FITC in peer review file; single strand, 7-mer
T1 sequence: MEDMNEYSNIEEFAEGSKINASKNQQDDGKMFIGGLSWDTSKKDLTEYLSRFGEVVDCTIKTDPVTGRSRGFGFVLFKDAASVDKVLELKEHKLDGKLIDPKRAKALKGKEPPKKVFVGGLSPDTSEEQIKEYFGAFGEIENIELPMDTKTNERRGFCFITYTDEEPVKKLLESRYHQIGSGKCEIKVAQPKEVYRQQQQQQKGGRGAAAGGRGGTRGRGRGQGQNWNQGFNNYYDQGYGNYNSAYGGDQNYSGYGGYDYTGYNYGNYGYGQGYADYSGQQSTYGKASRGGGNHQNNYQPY

B1: hnRNPDL-2 (human heterogeneous ribonucleoprotein D-like, isoform 2), wild type (natural protein, UniProt O14979-2 1-301, looked up)
chain: MEDMNEYSNIEEFAEGSKINASKNQQDDGKMFIGGLSWDTSKKDLTEYLSRFGEVVDCTIKTDPVTGRSRGFGFVLFKDAASVDKVLELKEHKLDGKLIDPKRAKALKGKEPPKKVFVGGLSPDTSEEQIKEYFGAFGEIENIELPMDTKTNERRGFCFITYTDEEPVKKLLESRYHQIGSGKCEIKVAQPKEVYRQQQQQQKGGRGAAAGGRGGTRGRGRGQGQNWNQGFNNYYDQGYGNYNSAYGGDQNYSGYGGYDYTGYNYGNYGYGQGYADYSGQQSTYGKASRGGGNHQNNYQPY
notes: Heterogeneous nuclear ribonucleoprotein D-like, human, isoform hnRNPDL-2 of 301 residues (RRM1, RRM2, C-terminal Y/G-rich LCD ~201-285, PY-NLS 281-301; exon 6 = residues 224-280). numbers count on: hnRNPDL-2 (the 301-residue isoform); Cloned in pETite with a His-SUMO N-terminal tag; In the fibril the subunits stack in a single protofilament; also called WT hnRNPDL-2; full-length hnRNPDL-2; …
B1: binds [1].

B2: F-RNA (F-GACUAGC) (ssRNA)
RNA: GACUAGC
Work on B2 yielded a Kd (hnRNPDL-2 (soluble)) of 22.8 ± 3.95 µM.

Source: paper PMC9842712, “Cryo-EM structure of hnRNPDL-2 fibrils, a functional amyloid associated with limb-girdle muscular dystrophy D3” (Nature Communications, 2022)
